From patent publication US20250197467A1
Like-named read-outs stand apart in the source and are kept apart here. Blank lines part the entries; values can stand above or below the substance they belong to.

Columns and labels:
C155 (human) = C155 (human) (UniProt Q14116); assay: cell-based or functional assay
C159 (human) = C159 (human) (UniProt Q14116); assay: cell-based or functional assay
[1] = molecular target: SEQ ID NO 5 (Homo sapiens (Human)) (UniProt Q14116); assay: cell-based or functional assay
[2] = molecular target: SEQ ID NO 36 (Homo sapiens (Human)) (UniProt Q14116); assay: cell-based or functional assay
[3] = molecular target: SEQ ID NO 42 (Homo sapiens (Human)) (UniProt Q14116); assay: cell-based or functional assay
C156 (human) = C156 (human) (UniProt Q14116); assay: cell-based or functional assay
[4] = molecular target: SEQ ID NO 52 (Homo sapiens (Human)) (UniProt Q14116); assay: cell-based or functional assay
[5] = molecular target: IL-18 WT (SEQ ID NO: 1) (human) (UniProt Q14116); assay: cell-based or functional assay
[6] = molecular target: SEQ ID NO 34 (Homo sapiens (Human)) (UniProt Q14116); assay: cell-based or functional assay
[7] = molecular target: SEQ ID NO 59 (Homo sapiens (Human)) (UniProt Q14116); assay: cell-based or functional assay
C145 (human) = C145 (human) (UniProt Q14116); assay: cell-based or functional assay
C153 (human) = C153 (human) (UniProt Q14116); assay: cell-based or functional assay
[8] = molecular target: C146 (Homo sapiens (Human)) (UniProt Q14116); assay: cell-based or functional assay
C163 (human) = C163 (human) (UniProt Q14116); assay: cell-based or functional assay
C162 (human) = C162 (human) (UniProt Q14116); assay: cell-based or functional assay
[9] = molecular target: SEQ ID NO 47 (Homo sapiens (Human)) (UniProt Q14116); assay: cell-based or functional assay
C148 (human) = C148 (human) (UniProt Q14116); assay: cell-based or functional assay
[10] = molecular target: SEQ ID NO 50 (Homo sapiens (Human)) (UniProt Q14116); assay: cell-based or functional assay
C158 (human) = C158 (human) (UniProt Q14116); assay: cell-based or functional assay
C150 (human) = C150 (human) (UniProt Q14116); assay: cell-based or functional assay
[11] = molecular target: SEQ ID NO 62 (Homo sapiens (Human)) (UniProt Q14116); assay: cell-based or functional assay
C168 (human) = C168 (human) (UniProt Q14116); assay: cell-based or functional assay
C154 (human) = C154 (human) (UniProt Q14116); assay: cell-based or functional assay
C165 (human) = C165 (human) (UniProt Q14116); assay: cell-based or functional assay
C144 (human) = C144 (human) (UniProt Q14116); assay: cell-based or functional assay
[12] = molecular target: C190 (Homo sapiens (Human)) (UniProt Q14116); assay: cell-based or functional assay
[13] = molecular target: SEQ ID NO 53 (Homo sapiens (Human)) (UniProt Q14116); assay: cell-based or functional assay
[14] = molecular target: SEQ ID NO 57 (Homo sapiens (Human)) (UniProt Q14116); assay: cell-based or functional assay
C160 (human) = C160 (human) (UniProt Q14116); assay: cell-based or functional assay
C164 (human) = C164 (human) (UniProt Q14116); assay: cell-based or functional assay
[15] = molecular target: SEQ ID NO 39 (Homo sapiens (Human)) (UniProt Q14116); assay: cell-based or functional assay
C152 (human) = C152 (human) (UniProt Q14116); assay: cell-based or functional assay
[16] = molecular target: SEQ ID NO 40 (Homo sapiens (Human)) (UniProt Q14116); assay: cell-based or functional assay
C157 (human) = C157 (human) (UniProt Q14116); assay: cell-based or functional assay
C161 (human) = C161 (human) (UniProt Q14116); assay: cell-based or functional assay
C166 (human) = C166 (human) (UniProt Q14116); assay: cell-based or functional assay
[17] = molecular target: SEQ ID NO 46 (Homo sapiens (Human)) (UniProt Q14116); assay: cell-based or functional assay
[18] = molecular target: SEQ ID NO 51 (Homo sapiens (Human)) (UniProt Q14116); assay: cell-based or functional assay
C147 (human) = C147 (human) (UniProt Q14116); assay: cell-based or functional assay
[19] = molecular target: SEQ ID NO 41 (Homo sapiens (Human)) (UniProt Q14116); assay: cell-based or functional assay
C143 (human) = C143 (human) (UniProt Q14116); assay: cell-based or functional assay
[20] = molecular target: SEQ ID NO 55 (Homo sapiens (Human)) (UniProt Q14116); assay: cell-based or functional assay
[21] = molecular target: SEQ ID NO 38 (Homo sapiens (Human)) (UniProt Q14116); assay: cell-based or functional assay
[22] = molecular target: SEQ ID NO 35 (Homo sapiens (Human)) (UniProt Q14116); assay: cell-based or functional assay
[23] = molecular target: SEQ ID NO 37 (Homo sapiens (Human)) (UniProt Q14116); assay: cell-based or functional assay
C149 (human) = C149 (human) (UniProt Q14116); assay: cell-based or functional assay
C151 (human) = C151 (human) (UniProt Q14116); assay: cell-based or functional assay
[24] = molecular target: SEQ ID NO 43 (Homo sapiens (Human)) (UniProt Q14116); assay: cell-based or functional assay
[25] = molecular target: SEQ ID NO 54 (Homo sapiens (Human)) (UniProt Q14116); assay: cell-based or functional assay
[26] = molecular target: SEQ ID NO 9 (Homo sapiens (Human)) (UniProt Q14116); assay: cell-based or functional assay
[27] = molecular target: SEQ ID NO 48 (Homo sapiens (Human)) (UniProt Q14116); assay: cell-based or functional assay
[28] = molecular target: C086 (SEQ ID NO: 30) (Homo sapiens (Human)) (UniProt Q14116); assay: cell-based or functional assay
C167 (human) = C167 (human) (UniProt Q14116); assay: cell-based or functional assay
[29] = molecular target: SEQ ID NO 6 (Homo sapiens (Human)) (UniProt Q14116); assay: cell-based or functional assay
[30] = molecular target: SEQ ID NO 4 (Homo sapiens (Human)) (UniProt Q14116); assay: cell-based or functional assay
[31] = molecular target: SEQ ID NO 60 (Homo sapiens (Human)) (UniProt Q14116); assay: cell-based or functional assay
[32] = molecular target: Composition S (Homo sapiens (Human)) (UniProt Q14116)
[33] = molecular target: Composition E, MMP9-treated (Homo sapiens (Human)) (UniProt Q14116)
[34] = molecular target: His-tagged human IL-18BP (human) (UniProt O95998); assay: AlphaLISA of free IL-18BP
[35] = molecular target: His-tagged human IL-18BP (human) (UniProt O95998); assay: AlphaLISA of free IL-18BP; remark: listed apart in the source
[36] = molecular target: His-tagged human IL-18BP (human) (UniProt O95998); assay: AlphaLISA of free IL-18BP (analyte titrated in assay buffer against 5 ng/ml His-tagged human IL-18BP; falling signal = IL-18BP bound)

Fc-fused human IL-18 binding protein isoform a (IL-18BPa), sequence (O95998 31-194 limits assumed): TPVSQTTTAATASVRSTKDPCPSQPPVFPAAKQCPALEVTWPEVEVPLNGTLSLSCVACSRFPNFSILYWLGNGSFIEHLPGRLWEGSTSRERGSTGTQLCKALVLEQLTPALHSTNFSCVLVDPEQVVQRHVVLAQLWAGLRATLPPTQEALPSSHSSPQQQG
His-tagged human IL-18BP (human), sequence (O95998 31-194): as the sequence (O95998 31-194 limits assumed) above
IL-18 WT (SEQ ID NO: 1), sequence (Q14116 37-193): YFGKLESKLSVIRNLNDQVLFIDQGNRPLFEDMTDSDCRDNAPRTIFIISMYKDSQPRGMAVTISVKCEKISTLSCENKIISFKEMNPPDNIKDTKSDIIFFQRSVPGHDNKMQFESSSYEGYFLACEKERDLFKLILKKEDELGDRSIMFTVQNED
IL-18 WT (SEQ ID NO: 1) (human), sequence (Q14116 37-193): as above
C148 (human), sequence (Q14116 other isoform, or with tags, fused parts or gaps): as the sequence (Q14116 37-193) above, with F2A, V11I, C38A, K53A, C76A, C127A counted along it
SEQ ID NO 6 (Homo sapiens (Human)), sequence (Q14116 other isoform, or with tags, fused parts or gaps): as the sequence (Q14116 37-193) above, with E6K, V11I, C38A, K53A, T63A, C68A, C76A, D98C, C127A counted along it
SEQ ID NO 52 (Homo sapiens (Human)), sequence (Q14116 other isoform, or with tags, fused parts or gaps): as the sequence (Q14116 37-193) above, with E6K, T63A counted along it
C149 (human), sequence (Q14116 other isoform, or with tags, fused parts or gaps): as the sequence (Q14116 37-193) above, with V11I, E31A, C38A, K53A, C76A, C127A counted along it
C150 (human), sequence (Q14116 other isoform, or with tags, fused parts or gaps): as the sequence (Q14116 37-193) above, with V11I, T34A, C38A, K53A, C76A, C127A counted along it
C154 (human), sequence (Q14116 other isoform, or with tags, fused parts or gaps): as the sequence (Q14116 37-193) above, with V11I, E31A, D37A, C38A, K53A, C76A, C127A counted along it
C162 (human), sequence (Q14116 other isoform, or with tags, fused parts or gaps): as the sequence (Q14116 37-193) above, with K8E, V11I, C38A, C76A, Q103R, C127A counted along it
SEQ ID NO 43 (Homo sapiens (Human)), sequence (Q14116 other isoform, or with tags, fused parts or gaps): as the sequence (Q14116 37-193) above, with Y1G, E6K, K53A, S55A counted along it
C190 (Homo sapiens (Human)), sequence (Q14116 other isoform, or with tags, fused parts or gaps): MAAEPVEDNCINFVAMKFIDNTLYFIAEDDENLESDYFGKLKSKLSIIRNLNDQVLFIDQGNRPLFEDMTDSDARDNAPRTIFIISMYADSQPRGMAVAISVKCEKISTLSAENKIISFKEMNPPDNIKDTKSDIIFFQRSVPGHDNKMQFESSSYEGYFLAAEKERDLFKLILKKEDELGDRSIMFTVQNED
SEQ ID NO 34 (Homo sapiens (Human)), sequence (Q14116 other isoform, or with tags, fused parts or gaps): as the sequence (Q14116 37-193) above, with E6K, K53A, S55A counted along it
SEQ ID NO 37 (Homo sapiens (Human)), sequence (Q14116 37-193 S91A): as the sequence (Q14116 37-193) above, with S55A counted along it
C146 (Homo sapiens (Human)), sequence (Q14116 other isoform, or with tags, fused parts or gaps): as the sequence (Q14116 37-193) above, with V11I, C38A, M51G, K53A, C76A, C127A counted along it
C152 (human), sequence (Q14116 other isoform, or with tags, fused parts or gaps): as the sequence (Q14116 37-193) above, with V11I, S36A, C38A, K53A, C76A, C127A counted along it
SEQ ID NO 38 (Homo sapiens (Human)), sequence (Q14116 other isoform, or with tags, fused parts or gaps): as the sequence (Q14116 37-193) above, with E6K counted along it
SEQ ID NO 39 (Homo sapiens (Human)), sequence (Q14116 other isoform, or with tags, fused parts or gaps): as the sequence (Q14116 37-193) above, with E6K, K53A counted along it
C158 (human), sequence (Q14116 other isoform, or with tags, fused parts or gaps): as the sequence (Q14116 37-193) above, with V11I, C38A, K53A, C76A, G108A, C127A counted along it
C165 (human), sequence (Q14116 other isoform, or with tags, fused parts or gaps): as the sequence (Q14116 37-193) above, with V11I, C38A, S55R, C76A, C127A counted along it
C155 (human), sequence (Q14116 other isoform, or with tags, fused parts or gaps): as the sequence (Q14116 37-193) above, with V11I, C38A, D40A, K53A, C76A, C127A counted along it
C166 (human), sequence (Q14116 other isoform, or with tags, fused parts or gaps): as the sequence (Q14116 37-193) above, with V11I, C38A, S55T, C76A, C127A counted along it
SEQ ID NO 41 (Homo sapiens (Human)), sequence (Q14116 37-193 K89A/S91A): as the sequence (Q14116 37-193) above, with K53A, S55A counted along it
SEQ ID NO 36 (Homo sapiens (Human)), sequence (Q14116 37-193 K89A): as the sequence (Q14116 37-193) above, with K53A counted along it
SEQ ID NO 60 (Homo sapiens (Human)), sequence (Q14116 other isoform, or with tags, fused parts or gaps): as the sequence (Q14116 37-193) above, with E6K, C38Q, K53A counted along it
SEQ ID NO 53 (Homo sapiens (Human)), sequence (Q14116 37-193 K89A/T99A): as the sequence (Q14116 37-193) above, with K53A, T63A counted along it
C159 (human), sequence (Q14116 other isoform, or with tags, fused parts or gaps): as the sequence (Q14116 37-193) above, with V11I, C38A, K53A, C76A, H109A, C127A counted along it

IC50 (IL-18BP inhibition of IFNγ, NK92) (C155 (human)): 3.23 nM
IC50 (IL-18BP inhibition of IFNγ, NK92) (C159 (human)): 1.81 nM
IC50 (IL-18BP inhibition of IFNγ, NK92) [1]: 62.4 nM
IC50 (IL-18BP inhibition of IFNγ, NK92) [2]: 27.3 nM
IC50 (IL-18BP inhibition of IFNγ, NK92) [3]: 1060 nM
IC50 (IL-18BP inhibition of IFNγ, NK92) (C156 (human)): 0.681 nM
IC50 (IL-18BP inhibition of IFNγ, NK92) [4]: 47.1 nM
IC50 (IL-18BP inhibition of IFNγ, NK92) [5]: 1.47 nM
IL-18BP-mediated IFNγ inhibition NK-92 assay IC50 [5]: 0.403 nM
IC50 (IL-18BP inhibition of IFNγ, NK92) [6]: 229 nM
IC50 (IL-18BP inhibition of IFNγ, NK92) [7]: 654 nM
IC50 (IL-18BP inhibition of IFNγ, NK92) (C145 (human)): 10.2 nM
IC50 (IL-18BP inhibition of IFNγ, NK92) (C153 (human)): 2.22 nM
IC50 (IL-18BP inhibition of IFNγ, NK92) [8]: 733 nM
IC50 (IL-18BP inhibition of IFNγ, NK92) (C163 (human)): 0.823 nM
IC50 (IL-18BP inhibition of IFNγ, NK92) (C162 (human)): 7.29 nM
IC50 (IL-18BP inhibition of IFNγ, NK92) [9]: 0.444 nM
IC50 (IL-18BP inhibition of IFNγ, NK92) (C148 (human)): 5.05 nM
IC50 (IL-18BP inhibition of IFNγ, NK92) [10]: > 1000 nM
IC50 (IL-18BP inhibition of IFNγ, NK92) (C158 (human)): 3.98 nM
IC50 (IL-18BP inhibition of IFNγ, NK92) (C150 (human)): 21.3 nM
IC50 (IL-18BP inhibition of IFNγ, NK92) [11]: 284 nM
IC50 (IL-18BP inhibition of IFNγ, NK92) (C168 (human)): 0.176 nM
IC50 (IL-18BP inhibition of IFNγ, NK92) (C154 (human)): 3.71 nM
IC50 (IL-18BP inhibition of IFNγ, NK92) (C165 (human)): 0.885 nM
IC50 (IL-18BP inhibition of IFNγ, NK92) (C144 (human)): 7.52 nM
IL-18BP-mediated IFNγ inhibition NK-92 assay IC50 [12]: 4.33 nM
IC50 (IL-18BP inhibition of IFNγ, NK92) [13]: 18.2 nM
IC50 (IL-18BP inhibition of IFNγ, NK92) [14]: 146 nM
IC50 (IL-18BP inhibition of IFNγ, NK92) (C160 (human)): 3.18 nM
IC50 (IL-18BP inhibition of IFNγ, NK92) (C164 (human)): 0.456 nM
IC50 (IL-18BP inhibition of IFNγ, NK92) [15]: > 703 nM
IC50 (IL-18BP inhibition of IFNγ, NK92) (C152 (human)): 7.85 nM
IC50 (IL-18BP inhibition of IFNγ, NK92) [16]: 15 nM
IC50 (IL-18BP inhibition of IFNγ, NK92) (C157 (human)): 6.08 nM
IC50 (IL-18BP inhibition of IFNγ, NK92) (C161 (human)): 1.07 nM
IC50 (IL-18BP inhibition of IFNγ, NK92) (C166 (human)): 0.44 nM
IC50 (IL-18BP inhibition of IFNγ, NK92) [17]: 0.189 nM
IC50 (IL-18BP inhibition of IFNγ, NK92) [18]: 0.239 nM
IC50 (IL-18BP inhibition of IFNγ, NK92) (C147 (human)): 47.6 nM
IC50 (IL-18BP inhibition of IFNγ, NK92) [19]: 37.3 nM
IC50 (IL-18BP inhibition of IFNγ, NK92) (C143 (human)): 1.62 nM
IC50 (IL-18BP inhibition of IFNγ, NK92) [20]: > 1000 nM
IC50 (IL-18BP inhibition of IFNγ, NK92) [21]: 7.79 nM
IC50 (IL-18BP inhibition of IFNγ, NK92) [22]: > 55 nM
IC50 (IL-18BP inhibition of IFNγ, NK92) [23]: 4.46 nM
IC50 (IL-18BP inhibition of IFNγ, NK92) (C149 (human)): 1.17 nM
IC50 (IL-18BP inhibition of IFNγ, NK92) (C151 (human)): 3.62 nM
IC50 (IL-18BP inhibition of IFNγ, NK92) [24]: 27.8 nM
IC50 (IL-18BP inhibition of IFNγ, NK92) [25]: 23.5 nM
IC50 (IL-18BP inhibition of IFNγ, NK92) [26]: 961 nM
IC50 (IL-18BP inhibition of IFNγ, NK92) [27]: 0.114 nM
IL-18BP-mediated IFNγ inhibition NK-92 assay IC50 [28]: 22.5 nM
IC50 (IL-18BP inhibition of IFNγ, NK92) (C167 (human)): 0.809 nM
IC50 (IL-18BP inhibition of IFNγ, NK92) [29]: 5.85 nM
IC50 (IL-18BP inhibition of IFNγ, NK92) [30]: 396 nM
IC50 (IL-18BP inhibition of IFNγ, NK92) [31]: 780 nM
IC50 (read off the curve), PD-1 negative NK-92 cells [32]: 8 nM
IC50 (read off the curve), PD-1 positive NK-92 cells [33]: 8 nM
Substance: Fc-fused human IL-18 binding protein isoform a (IL-18BPa) (from UniProt O95998 31-194) (Fc fusion)

Kd [34]: 0.403 nM
Kd [35]: 0.67 nM
IC50 (read off the curve) [36]: 0.08 nM
Substance: IL-18 WT (SEQ ID NO: 1) (from UniProt Q14116 37-193) (ligand)
